Measured values reported in patent US6416758B1 (Board of Regents, The University of Texax System, priority 1999, dated 2002).

Experiments:
GUS enzymatic activity = type: biochemical
Text: The 6-His GUS was pure based upon SDS-PAGE, where it ran as a single band of 75 kDa band. On gel filtration columns, the 6-His GUS runs as a tetramer of about 300 kDa.

[1] = Blood clearance of radioiodinated 2C3-GUS; type: in vivo, mouse; conditions: 125I-labelled, intravenous injection into mice
Experimental: 2C3-GUS was radioiodinated with ^125I to a specific activity of 5×10^6 cpm/μg. After intravenous injection into mice, the radioiodinated 2C3-GUS cleared from the blood with a t½α of about 6 hours and a t 1/2β of about 25 hours.

[2] = tested on: human NCI-H358 NSCLC tumors; assay: In vivo localization of 2C3-GUS; parameters: species or system mouse; conditions: SCID mice bearing s.c. NCI-H358
[3] = target: T1, VEGF alone or VEGF associated with sFlk-1 (VEGF:Flk-1) (Homo sapiens, UniProt P15692); assay: Indirect and capture ELISA, VEGF alone vs VEGF associated with sFlk-1; type: binding
T1 sequence (P15692 27-191 isoform P15692-4): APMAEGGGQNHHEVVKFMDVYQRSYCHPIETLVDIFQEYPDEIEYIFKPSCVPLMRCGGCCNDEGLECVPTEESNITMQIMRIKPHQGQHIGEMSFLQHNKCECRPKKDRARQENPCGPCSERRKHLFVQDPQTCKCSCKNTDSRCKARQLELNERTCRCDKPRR
Experimental: The Flk-1/SEAP protein was produced and purified as described by Tessler et al. (1994). Basically, the extracellular domain of Flk-1(sFlk-1) was produced in Spodoptera frugiperda (Sf9) cells and purified by immunoaffinity techniques utilizing a monoclonal anti-Flk-1 antibody (1A8). sFlk-1 was then biotinylated and bound on avidin-coated plates.
The reactivity was determined as described above for the initial screening.
A capture ELISA was also developed. In the capture ELISA, microtiter plates were coated overnight at 4° C. with 100 ng of the indicated antibody. […] Streptavidin conjugated to peroxidase (Kirkegaard & Perry Laboratories, Inc.), diluted 1:2000, was used as a second layer and developed.

[4] = target: T2, denatured VEGF121 and VEGF165 (Homo sapiens, UniProt P15692); assay: Western blot analysis; type: binding; conditions: reducing and non-reducing conditions
T2 sequence (P15692 27-191 isoform P15692-4): T1 sequence (P15692 27-191 isoform P15692-4)
Experimental: The nitrocellulose membrane was blocked using Sea-Block PP82-41 (East Coast Biologics, Berwick, Me.), and probed with primary antibodies using a mini-blotter apparatus (Immunetics, Cambridge, Mass.). The membranes were developed after incubation with the appropriate peroxidase-conjugated secondary antibody by ECL enhanced chemiluminescence.
Western blot analyses of anti-VEGF antibodies were conducted by separating VEGF165 in the presence of 5% FCS using SDS-PAGE on a 12% gel and analyzing by a standard western blotting protocol using ECL detection. The primary antibodies were incubated with the nitrocellulose membrane using a multi-lane mini-blotter apparatus.

[5] = tested on: VEGF-mediated growth of ABAE cells; assay: Endothelial cell growth assay (MTS); type: cell-based, bovine; conditions: Table 5
[6] = tested on: NCI-H358 NSCLC and HT29 colon adenocarcinoma xenografts and normal organs; assay: In vivo localization to human tumor xenografts in mice
Experimental: Tumors were grown subcutaneously in immunocompromised mice (NCI-H358 NSCLC in nu/nu mice and HT29 colon adenocarcinoma in SCID mice) until the tumnor volume was approximately 1 cm^3. 100 μg of unlabeled antibody for studies using SCID mice, or 100 μg of biotinylated antibody for studies using nude mice, was injected intravenously via a tail vein. Twenty four hours later, the mice were anesthetized, perfused with PBS, and tumnor and organs including heart, lungs, liver, kidneys, intestines and spleen were collected and snap frozen in liquid nitrogen.
The tumor and organs from each mouse were sectioned on a cryostat and stained for antibody immunohistochemically as above, with the exception that sections from the nude mice were developed using peroxidase labeled streptavidin-biotin complex (Dako, Carpinteria, Calif.) and the sections from the SCID mice were developed using two peroxidase-conjugated secondary antibodies, a goat anti-mouse IgG+IgM followed by a rabbit anti-goat IgG.
100 μg of GV39M and 3E7 or isotype-matched control IgG were injected into SCID mice bearing HT29 human colonic adenocarcinomas. Twenty-four hours later, the mice were sacrificed, exsanguinated and the tumors and tissues were removed. Frozen sections of the tumors and tissues were analyzed immunohistochemically to determine the binding and distribution of the antibodies (Table 4).

[7] = tested on: VEGFR2 (KDR/Flk-1; sFlk-1); assay: ELISA, VEGF binding to VEGFR2-coated wells; parameters: species or system mouse
Experimental: (§1) FIG. 2. […] The plate was then incubated with rabbit anti-VEGF (A-20, Santa Cruz Biotechnology, Inc.) at 1 μg/ml and developed using a peroxidase conjugated goat anti-rabbit antibody. Assays were performed in triplicate. Mean percent binding in the absence of antibody is shown, together with the standard deviation.
(§2) The assay was also performed by coating wells of a microtiter plate with either control or test IgG.

VEGFR1 (Flt-1/Fc) = assay: ELISA, VEGF binding to VEGFR1-coated wells; conditions: Table 5
Experimental: as §1, §2

NCI-H358 NSCLC = assay: Growth inhibition of newly-implanted NCI-H358 xenografts; type: in vivo, mouse; conditions: 100 μg i.p. 2 times per wk from day 1, nu/nu mice
Experimental: (§3) FIG. 3A and FIG. 3B. […] FIG. 3A: 1×10^7 NCI-H358 NSCLC cells were injected subcutaneously into nu/nu mice on day 0. FIG. 3B: 5×10^6 A673 rhabdomyosarcoma cells were injected subcutaneously into nu/nu mice on day 0. Mice were injected i.p. with the indicated IgG on day 1 and 2 times/week thereafter. […] Tumors were measured 2-3 times per week. Mean and standard error is shown for the duration of the study in FIG. 3A, while data for the last day of the study (day 26) is shown in FIG. 3B.
(§4) Nu/nu mice were injected subcutaneously with either 1×10^7 NCI-H358 NSCLC cells or 5×10^6 A673 rhabdomyosarcoma cells on day 0. […] The tumors were then measured twice per wk for a period of approximately six wk for the NCI-H358 bearing mice and four wk for the A673 bearing mice. Tumor volume was calculated according to the formula: volume=L×W×H, where L=length, W=width, H=height.

A673 rhabdomyosarcoma [8] = assay: Growth inhibition of newly-implanted A673 xenografts; type: in vivo, mouse; conditions: 100 μg i.p. 2 times per wk from day 1, nu/nu mice
Experimental: as §3, §4

NCI-H358 NSCLC tumors = assay: Treatment of established NCI-H358 xenografts; type: in vivo, mouse
Experimental: FIG. 4. […] Mean tumor volume along with the SEM over 116 days is shown.
(§5) FIG. 5A and FIG. 5B. […] Treatments (T) were 100 μg of the IgG given i.p., except for the initial treatment that consisted of 500 μg of the IgG given i.v. Mean tumor volume along with the SEM is shown. At the end of the study (day 116), the mice were sacrificed and the tumors dissected out and weighed. […] The mice were treated every other day as indicated (T). […] Mean tumor volume along with the SE is shown.
(§6) Male nu/nu mice bearing subcutaneous NCI-H358 tumors or HT1080 fibrosarcoma 200-400 mm^3 in size were injected i.p. with test or control antibodies. The NCI-H358 bearing mice were treated with 100 μg of antibodies per injection three times a week during the first week and twice a week during the second and third week. The mice were then switched to 50 μg per injection every five days. The HT1080 bearing mice were treated with 100 μg of the indicated antibody or saline every other day throughout the duration of the study. In both studies, mice were sacrificed when their tumors reached 2500 mm^3 size or earlier if tumors began to ulcerate.
Doses were 50-100 μg every 3-5 days. […] In addition to measuring mean tumor volume (FIG. 4), photographs of the mice from each treatment group were also taken to show the differences in tumor size and appearance at the end of the study.

HT1080 fibrosarcoma = assay: Treatment of established HT1080 xenografts; type: in vivo, mouse; conditions: 100 μg i.p. every other day
Experimental: as §5, §6

A673 rhabdomyosarcoma [9] = assay: Treatment of established A673 tumors; type: in vivo, mouse; conditions: mice with established tumors
[10] = tested on: LS174T colon adenocarcinoma; assay: Treatment of established LS174T tumors; type: in vivo, mouse; conditions: mice with established tumors
[11] = 24 hours after i.v. antibody, 2C3 in NCI-H358/nu/nu, 3E7 and GV39M in HT29/SCID mice

Substance: 2C3-GUS [Clone 2C3-GUS]
- Enzymatic activity of GUS (GUS enzymatic activity): retained enzymatic activity
- t 1/2β, clearance from the blood [1]: about 25 hours
- t½α, clearance from the blood [1]: about 6 hours
- Localization in tumor after i.v. injection [2]: specifically localized to tumor vasculature and surrounding tumor stroma
- Staining of normal tissues after i.v. injection [2]: unstained

Substance: 2C3: anti-VEGF monoclonal antibody, IgG2a,k, hybridoma ATCC PTA 1595; blocks VEGF binding to VEGFR2 but not VEGFR1 [Clone 2C3]
- Predominant Reactivity [3]: VEGF
- Reactivity with VEGF on western blots [4]: react
- Blocks VEGF-induced proliferation [5]: Yes
- Immunohistochemical Reactivity, Heart [6, 11]: −
- Immunohistochemical Reactivity, Intestine [6, 11]: −
- Immunohistochemical Reactivity, Kidney [6, 11]: −
- Immunohistochemical Reactivity, Liver [6, 11]: −
- Immunohistochemical Reactivity, Lung [6, 11]: −
- Immunohistochemical Reactivity, Spleen [6, 11]: −
- Immunohistochemical Reactivity, Tumor [6, 11]: 3+
- In vivo tumor localization pattern ([6]; CT connective tissue, BV blood vessels): Moderate to strong
- Localization in the HT29 human tumor model ([6]; HT29): localized strongly to the connective tissue
- In vivo normal mouse tissue localization ([6]; mouse, in vivo): None detectable
- Structure specifically bound after i.v. injection ([6]; mouse, in vivo, iv): tumor stroma
- Blocking of VEGF binding to VEGFR2 in ELISA ([7]; 100-1000 fold excess): blocked
- Reduction in VEGF binding to VEGFR2 ([7]; 100 fold molar excess over VEGF): about 74%
- VEGF bound to VEGFR2-coated wells, % of the amount bound in the absence of antibody ([7]; 1000-fold molar excess over VEGF (1 nM VEGF)): ~19%
- Reduction in VEGF binding to VEGFR2 ([7]; 1000 fold molar excess over VEGF): about 81%
- Blocks VEGF from binding to VEGFR2 ([7]; Table 5): Yes
- Blocks VEGF from binding to VEGFR1 (VEGFR1 (Flt-1/Fc)): No
- Final tumor volume, NCI-H358 NSCLC (NCI-H358 NSCLC): approximately 150 mm^3
- Final tumor volume, A673 rhabdomyosarcoma (A673 rhabdomyosarcoma [8]): approximately 150 mm^3
- Mean tumor volume after approximately 14 wk of treatment (NCI-H358 NSCLC tumors; FIG. 5A study, 100 μg, at start 480 mm^3 (2C3), 428 mm^3 (3E7)): 84 mm^3
- Decrease in mean tumor volume (NCI-H358 NSCLC tumors; FIG. 5A study, approximately 14 wk): approximately 80%
- Mean tumor weight at the end of the study (NCI-H358 NSCLC tumors; FIG. 5A study, day 116): 0.054 g
- Mean tumor volume at the end of the study, % of the initial mean tumor volume (NCI-H358 NSCLC tumors; established tumors 300-450 mm^3, 50-100 μg i.p. every 3-5 days, approximately 10 weeks of treatment): 30%
- Effect on growth of HT1080 tumors (HT1080 fibrosarcoma): arrested the growth of the tumors
- Effect on growth of established A673 tumors (A673 rhabdomyosarcoma [9]): significantly slowed the growth
- Effect on growth of established LS174T tumors [10]: significantly slowed the growth
